Changes are numbered by the printed parent chain.
B1: RA285 (nucleic acid)
DNA: GCGCGTCCTGGATTCGCGGAAACGCAGTGATACCAGCATCGTCTTGATGCCCTTGGCAGCACTGTACATCCAGCTGACGAGTCCCAAATAGGACGAAACGCGC
modifications: expressed or natural sequence
B2: RA027 (nucleic acid)
DNA: GCGCGTCCTGGATTCGCGGAAACGCGTACAGTGATACCAGCATCGTCTTGATGCCCTTGGCAGCACTATCCAGCTGACGAGTCCCAAATAGGACGAAACGCGC
modifications: expressed or natural sequence
B3: RA276 (nucleic acid)
DNA: GCGCGTCCTGGATTCGCGGAAACGCGTACATCCAGCTGACGAAGAATACCAGCATCGTCTTGATGCCCTTGGAAGTCTGTCCCAAATAGGACGAAACGCGC
modifications: expressed or natural sequence
B4: RA278 (nucleic acid)
DNA: GCGCGTCCTGGATTCGAGTGATACCAGCATCGTCTTGATGCCCTTGGCAGCACTCGGAAACGCGTACATCCAGCTGACGAGTCCCAAATAGGACGAAACGCGC
modifications: expressed or natural sequence
B5: RA288 (nucleic acid)
DNA: GCGCGTCCTGGATTCGCGGAAACGCGTACATCCAGCTGACGAGTCCCAAATAAGTGATACCAGCATCGTCTTGATGCCCTTGGCAGCACTGGACGAAACGCGC
modifications: expressed or natural sequence
B6: RA279 (nucleic acid)
DNA: GCGCGTCCTGGATTCGCGGAAACGCGTACATCCAGCTGACGAGTCCCAAATAGGACGACGAGAATACCAGCATCGTCTTGATGCCCTTGGAAGTCTCGAACGCGC
modifications: expressed or natural sequence
B7: RA002 (nucleic acid)
DNA: GCGCGTCCTGGATTCGCGGAAACGCGTACATCCAGCTGACGAGTCCCAAATAGGACGAAACGAGAATACCAGCATCGTCTTGATGCCCTTGGAAGTCTCGCGCGC
modifications: expressed or natural sequence
B8: RA287 (nucleic acid)
DNA: GCGCGTCCTGGATTCGCGGAAACGCGTACATCCAGCTGACGAAGTGATACCAGCATCGTCTTGATGCCCTTGGCAGCACTGTCCCAAATAGGACGAAACGCGC
modifications: expressed or natural sequence
B9: RA028 (nucleic acid)
DNA: B8 DNA with A43C, T45G, G46A, C74A, C77T, A78C, T80G
modifications: expressed or natural sequence
B10: RA286 (nucleic acid)
DNA: GCGCGTCCTGGATTCGCGGAAAAGAATACCAGCATCGTCTTGATGCCCTTGGAAGTCTCGCGTACATCCAGCTGACGAGTCCCAAATAGGACGAAACGCGC
modifications: expressed or natural sequence
B11: RA282 (nucleic acid)
DNA: GCGCGTCCTGGATTCGCGAGAATACCAGCATCGTCTTGATGCCCTTGGAAGTCTCGCGGAAACGCGTACATCCAGCTGACGAGTCCCAAATAGGACGAAACGCGC
modifications: expressed or natural sequence
B12: RA289 (nucleic acid)
DNA: GCGCGTCCTGGATTCGCGGAAACGCGTACATCCAGGAATACCAGCATCGTCTTGATGCCCTTGGAAGTCCGCTGACGAGTCCCAAATAGGACGAAACGCGC
modifications: expressed or natural sequence
B13: RA281 (nucleic acid)
DNA: GCGCGTCCTGGATTCGCGGAAACGCGTACATCCAGCTGACGAGTCCCAAATACGAGAATACCAGCATCGTCTTGATGCCCTTGGAAGTCTCGGGACGAAACGCGC
modifications: expressed or natural sequence
B14: RA277 (nucleic acid)
DNA: GCGCGTCCTGGATTCGCGGAAACGCGTACATCCGAGAATACCAGCATCGTCTTGATGCCCTTGGAAGTCTCAGCTGACGAGTCCCAAATAGGACGAAACGCGC
modifications: expressed or natural sequence
B15: RA280 (nucleic acid)
DNA: GCGCGTCCTGGATTCGCGGAAACGCGTACATCCAGCTGACGAGTCCCAAATAGGAGGAATACCAGCATCGTCTTGATGCCCTTGGAAGTCCCGAAACGCGC
modifications: expressed or natural sequence
B16: RA275 (nucleic acid)
DNA: GCGCGTCCTGGATTGAGAATACCAGCATCGTCTTGATGCCCTTGGAAGTCTCCGCGGAAACGCGTACATCCAGCTGACGAGTCCCAAATAGGACGAAACGCGC
modifications: expressed or natural sequence
B17: RA284 (nucleic acid)
DNA: GCGCGTCCTGGATTCGCGGAAACGGAATACCAGCATCGTCTTGATGCCCTTGGAAGTCCGCGTACATCCAGCTGACGAGTCCCAAATAGGACGAAACGCGC
modifications: expressed or natural sequence
B18: RA290 (nucleic acid)
DNA: GCGCGTCCTGGATTCGCGGAAACGCGTACATCCAGCTGACGACCGGAATACCAGCATCGTCTTGATGCCCTTGGAAGTCCGGGTCCCAAATAGGACGAAACGCGC
modifications: expressed or natural sequence
B19: RA274 (nucleic acid)
DNA: GCGCGTCCTGGATTCGCGGAAACGCGTACATCCAGCTGACGAGTCCCAAAGAGAATACCAGCATCGTCTTGATGCCCTTGGAAGTCTCTAGGACGAAACGCGC
modifications: expressed or natural sequence
B20: RA283 (nucleic acid)
DNA: GCGCGTCCTGGAAGAATACCAGCATCGTCTTGATGCCCTTGGAAGTCTTTCGCGGAAACGCGTACATCCAGCTGACGAGTCCCAAATAGGACGAAACGCGC
modifications: expressed or natural sequence

The molecules below were run on Renilla luciferase RNA (assay: Barcoded aptazyme variant library screen: un-cleaved Renilla luciferase RNA by barcode read counts, HEK293-T cells). Details: un-cleaved Renilla luciferase RNA, HEK293-T cells cultured with 1 mM theophylline (ON) over without theophylline (OFF); barcode read counts, triplicate.
Format: cell-based
From the text: Based on the findings from Example 1, an aptazyme variant library was generated from the T3H48 ribozyme with one of seven variant theophylline aptamers inserted sequentially after each nucleotide of the DNA sequence encoding the T3H48 ribozyme sequence. […] The seven variant theophylline aptamers vary in their communication channels, which are the ribonucleotides of the aptamer that attach to the ribozyme sequence (see, Table 2).
The library was barcoded with unique sequences of nine nucleotides flanked by forward and reverse primer amplification sequences.
The aptazyme library was then PCR amplified and cloned into the psiCHECK™-2 dual luciferase vector in the 3′ UTR of the Renilla luciferase gene. […] The next day, the cells were isolated followed by DNA and RNA extraction using standard methods. The purified RNA was then converted to cDNA and the barcoded portion of the aptazyme library was PCR amplified. Similarly, the DNA was PCR amplified and all the samples were sequenced. All experimental conditions (with theophylline and without theophylline) were performed in triplicate. The read count for each barcode was determined with a custom build code and the data was normalized to identify the un-cleaved fractions of the Renilla luciferase RNA from cells that were cultured in the presence or absence of theophylline for each aptazyme, which was used to obtain the fold-change between ON- and OFF-states (FIG. 2).

Molecule	Fold change in RNA expression between the ON state and the OFF state
B1	1.0 fold
B2	2.4 fold
B3	1.0 fold
B4	1.0 fold
B5	1.0 fold
B6	1.0 fold
B7	>6 fold
B8	1.0 fold
B9	2.3 fold
B10	1.0 fold
B11	1.0 fold
B12	1.0 fold
B13	1.0 fold
B14	1.0 fold
B15	1.0 fold
B16	1.0 fold
B17	1.0 fold
B18	1.0 fold
B19	1.0 fold
B20	1.0 fold
